Reference: patent US20200087364A1 (IMMATICS BIOTECHNOLOGIES, published 2020)

The binders below were run against T1, HLA-A*01:01 (human) (assay: UV-ligand exchange, anti-b2m ELISA).
T1 construct: MHC class I monomer first loaded with a UV-sensitive peptide (not identified) that is cleaved by UV irradiation and exchanged for the tested peptide; captured on streptavidin plates, detected with anti-β2m; also called peptide-receptive MHC molecules
Excerpt: Candidate peptides for T cell based therapies according to the present invention were further tested for their MHC binding capacity (affinity). The individual peptide-MHC complexes were produced by UV-ligand exchange, where a UV-sensitive peptide is cleaved upon UV-irradiation and exchanged with the peptide of interest as analyzed. Only peptide candidates that can effectively bind and stabilize the peptide-receptive MHC molecules prevent dissociation of the MHC complexes. To determine the yield of the exchange reaction, an ELISA was performed based on the detection of the light chain (β2m) of stabilized MHC complexes. The assay was performed as generally described in Rodenko et al. (Rodenko et al., 2006)
96 well MAXISorp plates (NUNC) were coated over night with 2 ug/ml streptavidin in PBS at room temperature, washed 4× and blocked for 1 h at 37° C. in 2% BSA containing blocking buffer. Refolded HLA-A*02:01/MLA-001 monomers served as standards, covering the range of 15-500 ng/ml. Peptide-MHC monomers of the UV-exchange reaction were diluted 100-fold in blocking buffer. Samples were incubated for 1 h at 37° C., washed four times, incubated with 2 ug/ml HRP conjugated anti-β2m for 1 h at 37° C., washed again and detected with TMB solution that is stopped with […]. Absorption was measured at 450 nm.

| Binder | peptide exchange yield |
| --- | --- |
| HTMEVTVY | 50 to 75% |
| IGDKVDAVY | 20 to 50% |
| IPVHDSVGVTY | 50 to 75% |
| RSDIGEFEW | 20 to 50% |
| ITDTLIHL | 20 to 50% |
| PIMSSSQALY | 20 to 50% |
| NSNLKFLEV | 20 to 50% |
| AVAAAAGASLY | 20 to 50% |
| EVLGEEMYAY | 20 to 50% |
| LLKAKDILY | 20 to 50% |
| PVHDSVGVTY | 20 to 50% |
| LTWAHSAKY | 50 to 75% |
| NEIDIHSIYFY | 20 to 50% |
| RTHIGYKVY | 50 to 75% |
| KASSVSAEDGY | 20 to 50% |
| QSEKEPGQQY | 50 to 75% |
| HSIEVFTHY | 20 to 50% |
| ISEAPLTEV | 20 to 50% |
| IADNPQLSFY | > 75% |
| FQYELRELY | > 75% |
| EAYLERIGY | 50 to 75% |
| RTIEGDFLW | 20 to 50% |
| ITDTLIHLM | 50 to 75% |

| Binder | peptide exchange yield |
| --- | --- |
| NTHTGTRPY | 20 to 50% |
| EAAPDIMHY | 20 to 50% |
| ASDHWRGRY | 50 to 75% |
| GTKQWVHARY | 10 to 20% |
| KIRAEVLSHY | 20 to 50% |
| LCATVCGTEQY | 20 to 50% |
| ISEDKSISF | 20 to 50% |
| NSDISIPEY | 50 to 75% |
| EVTDRNMLAF | 50 to 75% |
| IEKFAVLY | 50 to 75% |
| AQVQDTGRY | 50 to 75% |
| FTTLSDLQTNMA | 20 to 50% |
| HVSGQMLYF | 20 to 50% |
| LEDGIEQSAY | 20 to 50% |
| ASCRSSAEY | > 75% |
| RRLNFSGFGY | 50 to 75% |
| FLKVTGYDKDDY | 20 to 50% |
| DAVAPGREY | 20 to 50% |
| RQAPGPARDY | 20 to 50% |
| ITDVGPGNY | 50 to 75% |
| LSDAVHVEF | 50 to 75% |
| EVVEGKEWGSFY | 50 to 75% |
| GLIEVVTGY | > 75% |

Results, then the binder that gave them:

| peptide exchange yield | Binder |
| --- | --- |
| 20 to 50% | YLEDRPLSQ |
| 20 to 50% | TFDKQIVLL |
| 20 to 50% | YEVDTKLLSL |
| 50 to 75% | YLDSSKPAVY |
| 20 to 50% | SAPSSSGSPLY |
| > 75% | TLDSTRTLY |
| 10 to 20% | VPFNLITEY |
| 20 to 50% | STALSILLL |
| 20 to 50% | YIGLKGLYF |
| 20 to 50% | SQHIFTVSY |
| > 75% | TTDPKKFQY |
| 20 to 50% | SADEAHGLL |
| > 75% | TTENSGNYY |
| > 75% | YTEFVDATFTK |
| 20 to 50% | VVFDKSDLAKY |
| 50 to 75% | SIEVFTHY |
| 50 to 75% | SPAKQFNIY |
| 50 to 75% | VSERTGISY |
| 20 to 50% | TVFDENLSRY |
| 20 to 50% | TPIPFDKILY |
| 20 to 50% | STIDFRAGF |
| 50 to 75% | YTDFVGEGLY |
